# Earlier results as cited in article PMC12990809.
# Legend:
# Experiment in all cases: pulldown
# Settings in all cases: 20 nM protein, 1.5 uM RNA pool; 20 mM HEPES pH 7.8, 70 mM KCl, 10 mM NaCl, 10% glycerol, 2 mM DTT, 0.1 ug/uL BSA; 30 min, 4 C (protocol of this paper; not …); cited from earlier work
# [1] = biological target: IGF2BP3 (Homo sapiens) (UniProt O00425)
# [2] = biological target: T1, HNRNPLL (Homo sapiens) (UniProt Q8WVV9)
# T1 sequence: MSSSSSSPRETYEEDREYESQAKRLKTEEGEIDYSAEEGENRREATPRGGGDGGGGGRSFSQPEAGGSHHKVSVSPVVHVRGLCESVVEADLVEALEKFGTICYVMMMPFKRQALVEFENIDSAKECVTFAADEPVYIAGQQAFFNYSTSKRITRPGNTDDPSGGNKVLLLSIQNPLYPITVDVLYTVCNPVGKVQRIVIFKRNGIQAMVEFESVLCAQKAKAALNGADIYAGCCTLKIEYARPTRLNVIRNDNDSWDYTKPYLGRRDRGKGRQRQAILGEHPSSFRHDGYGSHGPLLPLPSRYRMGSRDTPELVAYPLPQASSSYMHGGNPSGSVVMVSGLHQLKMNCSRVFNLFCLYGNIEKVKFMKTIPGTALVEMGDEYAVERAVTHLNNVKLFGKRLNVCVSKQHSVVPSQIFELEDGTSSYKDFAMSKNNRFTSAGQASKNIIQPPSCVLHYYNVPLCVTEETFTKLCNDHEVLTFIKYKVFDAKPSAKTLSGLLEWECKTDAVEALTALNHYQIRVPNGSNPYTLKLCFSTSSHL
# [3] = biological target: PABPC5 (Homo sapiens) (UniProt Q96DU9)
# [4] = biological target: T2, mec-8 (Caenorhabditis elegans) (UniProt G5ECJ4)
# T2 sequence: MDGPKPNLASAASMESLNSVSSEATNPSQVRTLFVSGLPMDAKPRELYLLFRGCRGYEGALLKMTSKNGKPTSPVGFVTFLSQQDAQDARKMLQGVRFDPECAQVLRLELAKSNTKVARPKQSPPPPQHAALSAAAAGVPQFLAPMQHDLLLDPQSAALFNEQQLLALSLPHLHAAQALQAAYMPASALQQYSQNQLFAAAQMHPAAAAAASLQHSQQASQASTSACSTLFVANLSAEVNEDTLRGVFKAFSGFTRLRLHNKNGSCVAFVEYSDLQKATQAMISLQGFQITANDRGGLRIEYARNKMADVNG
# [5] = biological target: T3, KHDRBS2 (Homo sapiens) (UniProt Q5VWX1)
# T3 sequence: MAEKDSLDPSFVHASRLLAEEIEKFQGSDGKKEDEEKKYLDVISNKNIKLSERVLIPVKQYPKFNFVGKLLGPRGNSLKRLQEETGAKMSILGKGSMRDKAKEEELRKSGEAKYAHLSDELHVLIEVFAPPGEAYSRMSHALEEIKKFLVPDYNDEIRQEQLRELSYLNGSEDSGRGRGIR
# [6] = biological target: KHDRBS1 (Homo sapiens) (UniProt Q07666)
# [7] = biological target: T4, MAL8P1.40 (Plasmodium falciparum) (UniProt Q8IB66)
# T4 sequence: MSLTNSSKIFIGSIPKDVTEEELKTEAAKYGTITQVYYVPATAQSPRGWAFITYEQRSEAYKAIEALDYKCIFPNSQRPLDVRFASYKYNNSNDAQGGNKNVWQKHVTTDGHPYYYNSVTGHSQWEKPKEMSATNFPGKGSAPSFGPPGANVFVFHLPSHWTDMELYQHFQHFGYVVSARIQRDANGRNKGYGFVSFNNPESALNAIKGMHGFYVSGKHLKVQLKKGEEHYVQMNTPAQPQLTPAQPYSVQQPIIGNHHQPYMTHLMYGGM
# [8] = biological target: PCBP1 (Homo sapiens) (UniProt Q15365)
# [9] = biological target: T5, PF10_0068 (Plasmodium falciparum) (UniProt Q8IJX3)
# T5 sequence: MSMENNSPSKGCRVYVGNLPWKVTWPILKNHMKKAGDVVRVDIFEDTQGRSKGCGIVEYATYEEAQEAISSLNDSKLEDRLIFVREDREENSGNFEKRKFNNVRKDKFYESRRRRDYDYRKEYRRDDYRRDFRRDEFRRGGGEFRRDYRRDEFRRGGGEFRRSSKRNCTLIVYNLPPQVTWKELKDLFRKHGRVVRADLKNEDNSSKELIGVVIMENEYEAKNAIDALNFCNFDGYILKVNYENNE
# [10] = biological target: T6, RBM24 (Homo sapiens) (UniProt Q9BX46)
# T6 sequence: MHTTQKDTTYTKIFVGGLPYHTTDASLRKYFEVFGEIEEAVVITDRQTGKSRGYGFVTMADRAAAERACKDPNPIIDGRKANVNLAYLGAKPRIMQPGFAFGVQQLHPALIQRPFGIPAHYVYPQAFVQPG
# [11] = biological target: CELF5 (Homo sapiens) (UniProt Q8N6W0)
# [12] = biological target: T7, etr-1 (Caenorhabditis elegans) (UniProt A8DYS0)
# T7 sequence: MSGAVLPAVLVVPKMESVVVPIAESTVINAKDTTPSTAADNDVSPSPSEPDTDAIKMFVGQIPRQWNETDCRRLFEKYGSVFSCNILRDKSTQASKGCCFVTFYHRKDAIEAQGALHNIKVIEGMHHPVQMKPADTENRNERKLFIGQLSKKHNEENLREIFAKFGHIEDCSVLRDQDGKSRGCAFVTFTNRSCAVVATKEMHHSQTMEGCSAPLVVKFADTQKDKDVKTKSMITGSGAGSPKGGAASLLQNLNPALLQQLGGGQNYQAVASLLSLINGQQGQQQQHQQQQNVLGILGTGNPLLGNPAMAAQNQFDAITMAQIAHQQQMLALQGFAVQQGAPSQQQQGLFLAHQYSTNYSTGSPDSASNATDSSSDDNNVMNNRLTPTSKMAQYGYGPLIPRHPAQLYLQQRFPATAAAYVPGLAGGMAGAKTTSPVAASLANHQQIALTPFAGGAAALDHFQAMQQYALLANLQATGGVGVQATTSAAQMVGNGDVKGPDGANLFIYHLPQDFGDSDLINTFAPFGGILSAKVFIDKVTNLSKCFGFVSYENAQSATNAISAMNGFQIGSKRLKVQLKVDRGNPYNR
# [13] = biological target: T8, DAZAP1 (Homo sapiens) (UniProt Q96EP5)
# T8 sequence: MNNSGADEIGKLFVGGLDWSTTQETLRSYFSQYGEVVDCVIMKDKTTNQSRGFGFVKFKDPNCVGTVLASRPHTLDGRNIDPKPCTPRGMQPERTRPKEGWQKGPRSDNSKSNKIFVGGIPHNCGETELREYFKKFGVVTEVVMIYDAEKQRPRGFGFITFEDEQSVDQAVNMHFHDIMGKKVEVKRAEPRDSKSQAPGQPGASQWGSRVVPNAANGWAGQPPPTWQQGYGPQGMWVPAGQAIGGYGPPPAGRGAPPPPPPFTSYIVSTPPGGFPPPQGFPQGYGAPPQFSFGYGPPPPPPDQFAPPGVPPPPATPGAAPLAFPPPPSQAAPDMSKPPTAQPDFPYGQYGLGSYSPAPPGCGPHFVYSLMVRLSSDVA
# [14] = biological target: T9, sup-26 (Caenorhabditis elegans) (UniProt D5MCR3)
# T9 sequence: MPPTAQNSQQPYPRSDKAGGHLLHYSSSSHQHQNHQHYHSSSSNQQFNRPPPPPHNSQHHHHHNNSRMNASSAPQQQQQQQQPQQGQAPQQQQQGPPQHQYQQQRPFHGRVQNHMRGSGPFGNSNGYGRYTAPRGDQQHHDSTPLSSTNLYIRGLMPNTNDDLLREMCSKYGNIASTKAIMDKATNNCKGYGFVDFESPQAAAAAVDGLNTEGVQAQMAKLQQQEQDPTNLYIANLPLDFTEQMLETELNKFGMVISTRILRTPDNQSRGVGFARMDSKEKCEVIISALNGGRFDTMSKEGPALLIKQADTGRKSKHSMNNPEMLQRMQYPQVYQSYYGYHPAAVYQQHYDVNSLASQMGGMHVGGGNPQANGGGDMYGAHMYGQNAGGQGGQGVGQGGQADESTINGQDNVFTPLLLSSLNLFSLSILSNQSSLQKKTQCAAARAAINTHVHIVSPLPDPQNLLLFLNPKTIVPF
# [15] = biological target: T10, A2BP1 (Homo sapiens) (UniProt Q9NWB1)
# T10 sequence: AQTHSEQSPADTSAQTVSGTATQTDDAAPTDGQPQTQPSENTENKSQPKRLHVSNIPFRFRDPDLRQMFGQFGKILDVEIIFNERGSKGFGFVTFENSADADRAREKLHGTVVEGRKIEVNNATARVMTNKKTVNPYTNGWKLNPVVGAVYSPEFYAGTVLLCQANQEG
# [16] = biological target: T11, asd-1 (Caenorhabditis elegans) (UniProt A1BPT6)
# T11 sequence: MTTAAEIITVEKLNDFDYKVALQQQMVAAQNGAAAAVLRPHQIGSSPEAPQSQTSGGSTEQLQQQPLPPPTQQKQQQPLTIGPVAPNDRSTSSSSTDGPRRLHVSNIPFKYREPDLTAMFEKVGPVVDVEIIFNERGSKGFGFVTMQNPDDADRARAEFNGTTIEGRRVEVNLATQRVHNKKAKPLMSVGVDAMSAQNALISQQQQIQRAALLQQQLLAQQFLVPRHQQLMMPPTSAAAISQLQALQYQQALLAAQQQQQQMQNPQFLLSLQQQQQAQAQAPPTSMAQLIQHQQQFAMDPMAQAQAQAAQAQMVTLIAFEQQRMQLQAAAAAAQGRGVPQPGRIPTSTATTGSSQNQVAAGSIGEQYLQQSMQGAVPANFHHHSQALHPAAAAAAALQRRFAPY
# [17] = biological target: CELF6 (Homo sapiens) (UniProt Q96J87)
# [18] = biological target: T12, sup-12 (Caenorhabditis elegans) (UniProt O45189)
# T12 sequence: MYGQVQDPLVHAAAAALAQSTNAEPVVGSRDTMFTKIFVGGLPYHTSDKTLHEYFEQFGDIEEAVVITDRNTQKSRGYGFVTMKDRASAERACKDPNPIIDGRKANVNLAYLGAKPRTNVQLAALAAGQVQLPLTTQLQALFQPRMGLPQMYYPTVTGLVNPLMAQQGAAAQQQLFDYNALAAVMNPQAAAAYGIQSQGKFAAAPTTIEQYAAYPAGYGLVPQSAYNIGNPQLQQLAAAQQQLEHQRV
# [19] = biological target: T13, exc-7 (Caenorhabditis elegans) (UniProt Q20084)
# T13 sequence: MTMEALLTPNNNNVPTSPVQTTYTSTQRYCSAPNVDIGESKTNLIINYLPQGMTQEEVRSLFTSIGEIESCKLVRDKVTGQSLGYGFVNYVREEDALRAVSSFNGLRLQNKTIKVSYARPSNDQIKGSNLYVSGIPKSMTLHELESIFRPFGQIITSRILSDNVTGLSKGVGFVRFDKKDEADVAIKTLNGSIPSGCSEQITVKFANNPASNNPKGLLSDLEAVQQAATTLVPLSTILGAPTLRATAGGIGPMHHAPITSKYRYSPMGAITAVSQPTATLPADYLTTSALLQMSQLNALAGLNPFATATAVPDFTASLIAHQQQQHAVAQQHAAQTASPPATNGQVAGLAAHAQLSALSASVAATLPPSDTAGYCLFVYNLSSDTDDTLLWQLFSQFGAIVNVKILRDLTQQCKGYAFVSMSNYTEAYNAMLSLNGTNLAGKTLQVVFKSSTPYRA
# [20] = biological target: HNRNPCL1 (Homo sapiens) (UniProt O60812)
# Sequence of HNRNPCL1 (Homo sapiens) (O60812 1-131): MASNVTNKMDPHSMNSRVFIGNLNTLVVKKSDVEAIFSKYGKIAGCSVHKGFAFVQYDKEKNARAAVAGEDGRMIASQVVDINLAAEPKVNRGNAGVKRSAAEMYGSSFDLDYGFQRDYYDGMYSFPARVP
# Sequence of KHDRBS1 (Homo sapiens) (Q07666 107-291): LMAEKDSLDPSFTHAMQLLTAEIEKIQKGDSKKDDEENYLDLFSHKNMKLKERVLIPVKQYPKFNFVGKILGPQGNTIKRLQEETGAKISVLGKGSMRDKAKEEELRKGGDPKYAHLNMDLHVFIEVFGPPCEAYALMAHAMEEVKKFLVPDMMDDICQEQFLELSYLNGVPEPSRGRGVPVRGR
# Sequence of PABPC5 (Homo sapiens) (Q96DU9 whole entry): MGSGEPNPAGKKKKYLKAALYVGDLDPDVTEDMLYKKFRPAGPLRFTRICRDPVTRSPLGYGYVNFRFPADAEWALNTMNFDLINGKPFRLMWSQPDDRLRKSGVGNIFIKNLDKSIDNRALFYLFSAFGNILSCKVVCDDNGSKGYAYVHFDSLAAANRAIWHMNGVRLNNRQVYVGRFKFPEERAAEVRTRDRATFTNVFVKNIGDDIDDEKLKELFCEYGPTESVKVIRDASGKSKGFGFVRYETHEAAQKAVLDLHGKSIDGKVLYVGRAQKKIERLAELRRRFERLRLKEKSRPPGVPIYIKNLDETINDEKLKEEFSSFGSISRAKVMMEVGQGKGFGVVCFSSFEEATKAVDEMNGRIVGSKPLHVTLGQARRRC
# Sequence of CELF6 (Homo sapiens) (Q96J87 whole entry): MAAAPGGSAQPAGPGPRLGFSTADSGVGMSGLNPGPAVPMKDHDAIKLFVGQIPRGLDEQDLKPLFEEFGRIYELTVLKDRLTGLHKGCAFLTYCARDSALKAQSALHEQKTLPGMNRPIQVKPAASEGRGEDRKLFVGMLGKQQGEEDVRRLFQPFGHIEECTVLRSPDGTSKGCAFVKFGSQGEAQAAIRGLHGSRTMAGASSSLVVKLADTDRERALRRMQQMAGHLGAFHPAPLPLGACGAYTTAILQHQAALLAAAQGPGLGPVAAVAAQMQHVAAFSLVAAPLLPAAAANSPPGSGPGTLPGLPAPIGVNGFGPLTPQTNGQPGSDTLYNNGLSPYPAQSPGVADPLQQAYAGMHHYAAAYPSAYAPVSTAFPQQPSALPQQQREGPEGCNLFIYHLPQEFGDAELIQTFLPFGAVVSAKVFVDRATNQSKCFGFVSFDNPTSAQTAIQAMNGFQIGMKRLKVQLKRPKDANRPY
# Sequence of IGF2BP3 (Homo sapiens) (O00425 whole entry): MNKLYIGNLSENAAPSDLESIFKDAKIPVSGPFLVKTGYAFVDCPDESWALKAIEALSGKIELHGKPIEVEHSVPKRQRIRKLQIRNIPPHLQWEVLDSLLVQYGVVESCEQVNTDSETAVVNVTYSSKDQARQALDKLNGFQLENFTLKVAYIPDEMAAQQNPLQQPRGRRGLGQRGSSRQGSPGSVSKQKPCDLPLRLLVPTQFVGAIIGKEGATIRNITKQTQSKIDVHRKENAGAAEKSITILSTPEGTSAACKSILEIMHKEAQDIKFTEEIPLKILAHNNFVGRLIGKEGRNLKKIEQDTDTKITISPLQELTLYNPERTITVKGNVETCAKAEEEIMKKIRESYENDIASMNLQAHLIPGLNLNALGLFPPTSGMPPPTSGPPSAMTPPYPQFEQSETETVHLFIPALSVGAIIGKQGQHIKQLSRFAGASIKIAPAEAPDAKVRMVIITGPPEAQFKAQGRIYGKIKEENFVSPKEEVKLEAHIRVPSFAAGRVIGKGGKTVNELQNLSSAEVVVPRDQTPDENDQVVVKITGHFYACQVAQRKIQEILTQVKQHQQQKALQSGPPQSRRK
# Sequence of CELF5 (Homo sapiens) (Q8N6W0 whole entry): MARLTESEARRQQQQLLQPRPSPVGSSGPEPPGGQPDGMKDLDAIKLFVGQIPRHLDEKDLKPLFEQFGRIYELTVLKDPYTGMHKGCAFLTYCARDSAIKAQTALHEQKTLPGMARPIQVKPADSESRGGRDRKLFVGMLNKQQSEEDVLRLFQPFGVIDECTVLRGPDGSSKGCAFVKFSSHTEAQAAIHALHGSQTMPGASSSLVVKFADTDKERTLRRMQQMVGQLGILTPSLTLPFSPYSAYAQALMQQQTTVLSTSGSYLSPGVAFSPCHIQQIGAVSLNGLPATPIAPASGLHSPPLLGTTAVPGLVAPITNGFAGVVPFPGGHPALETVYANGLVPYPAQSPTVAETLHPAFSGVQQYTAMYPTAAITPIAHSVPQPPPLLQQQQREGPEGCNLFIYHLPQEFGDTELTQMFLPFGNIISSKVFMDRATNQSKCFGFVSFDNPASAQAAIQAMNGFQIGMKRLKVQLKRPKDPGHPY
# Sequence of PCBP1 (Homo sapiens) (Q15365 whole entry): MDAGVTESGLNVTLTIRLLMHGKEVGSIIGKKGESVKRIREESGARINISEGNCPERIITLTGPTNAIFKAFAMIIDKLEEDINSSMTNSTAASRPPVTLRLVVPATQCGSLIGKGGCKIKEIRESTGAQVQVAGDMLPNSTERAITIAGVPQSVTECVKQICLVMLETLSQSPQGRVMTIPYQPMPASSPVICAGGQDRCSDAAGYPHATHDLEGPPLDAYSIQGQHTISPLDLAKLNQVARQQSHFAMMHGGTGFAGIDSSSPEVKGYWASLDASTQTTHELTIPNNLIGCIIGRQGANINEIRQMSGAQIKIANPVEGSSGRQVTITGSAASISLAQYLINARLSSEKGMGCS
substance,measurement,setting,value
AACAA [RNAcompete motif RNCMPT00172],binding signal (z-score (mean of top ten 7-mers)),[1],6.02
ACANACA [RNAcompete motif RNCMPT00178],binding signal (z-score (mean of top ten 7-mers)),[2],9.56
AGAAANU [RNAcompete motif RNCMPT00171],binding signal (z-score (mean of top ten 7-mers)),[3],7.11
AGCACA [RNAcompete motif RNCMPT00181],binding signal (z-score (mean of top ten 7-mers)),[4],8.36
AUAAA [RNAcompete motif RNCMPT00185],binding signal (z-score (mean of top ten 7-mers)),[5],8.2
AUAAAAG [RNAcompete motif RNCMPT00169],binding signal (z-score (mean of top ten 7-mers)),[6],9.86
AUACAUG [RNAcompete motif RNCMPT00197],binding signal (z-score (mean of top ten 7-mers)),[7],14.8
CCNANCC [RNAcompete motif RNCMPT00186],binding signal (z-score (mean of top ten 7-mers)),[8],6.42
GGAGGA [RNAcompete motif RNCMPT00199],binding signal (z-score (mean of top ten 7-mers)),[9],8.55
GUGUGA [RNAcompete motif RNCMPT00184],binding signal (z-score (mean of top ten 7-mers)),[10],10.6
GUGUGUG [RNAcompete motif RNCMPT00166],binding signal (z-score (mean of top ten 7-mers)),[11],9.48
GUGUGUU [RNAcompete motif RNCMPT00183],binding signal (z-score (mean of top ten 7-mers)),[12],8.98
UAGGUAG [RNAcompete motif RNCMPT00013],binding signal (z-score (mean of top ten 7-mers)),[13],7.92
UAUAUA [RNAcompete motif RNCMPT00182],binding signal (z-score (mean of top ten 7-mers)),[14],6.85
UGCAUG [RNAcompete motif RNCMPT00168],binding signal (z-score (mean of top ten 7-mers)),[15],23.3
UGCAUGA [RNAcompete motif RNCMPT00180],binding signal (z-score (mean of top ten 7-mers)),[16],20.3
UGUGGUG [RNAcompete motif RNCMPT00187],binding signal (z-score (mean of top ten 7-mers)),[17],7.27
UGUGUG [RNAcompete motif RNCMPT00416],binding signal (z-score (mean of top ten 7-mers)),[18],10.8
UUAAGUU [RNAcompete motif RNCMPT00014],binding signal (z-score (mean of top ten 7-mers)),[19],13.7
UUUUUU [RNAcompete motif RNCMPT00167],binding signal (z-score (mean of top ten 7-mers)),[20],18.4
